Test results from the supplement of paper PMC10724198.
± gives the standard deviation of the averaged measurements.
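Further: PSI is a weighted mean of sequencing reads over stability bins, variants kept only with over 10 reads, mCherry proximal and sfGFP distal, peptide attached via GGGS linker.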

Each sequence was assayed on Saccharomyces cerevisiae (assay: protein stability index of tFT-peptide fusion (C-terminal peptide) (PSI (0-1 scale)); higher = more stable (slower turnover)). Conditions: genetic background: das1 deletion; temperature: 30 C.
Description: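 MPS profiling in S. cerevisiae of the tFT-X12 degron library: putative degron peptides plus stable controls, 12 aa, fused to the C-terminus of a sfGFP-mCherry timer. Cells are FACS-sorted into 8 mCherry/sfGFP bins and deep-sequenced. PSI runs from 0 (unstable) to 1 (stable). Backgrounds are wild type, das1Δ and doa10Δ at 30 °C, and wild type, das1Δ, cdc34-1 and cdc53-1 at 37 °C; 2-3 technical replicates each.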
Work on VVIWWFSAVVSV yielded a protein stability index of 0.0727 ± 0.021. Sequence VVPVGLYSVILV has a protein stability index of 0.322 ± 0.03. VVSGLNYCLVLS was tested, and the protein stability index was 0.29 ± 0.042. In the case of VVVCSLVPLFVL, the protein stability index is reported as 0.272 ± 0.03. VVVVWVVVEIVR showed a protein stability index of 0.164 ± 0.022. With VVWVYSMLFSIW the protein stability index was 0.231 ± 0.034. Sequence VWFFLLSFANRL has a protein stability index of 0.465 ± 0.043. With VWFGGFVCSVLG the protein stability index was 0.314 ± 0.028. For VWFGGLAVCCGG, the protein stability index was 0.303 ± 0.025. Work on VWYSCWSFLVLF yielded a protein stability index of 0.416 ± 0.034. Work on VYRRKLDRLLCI yielded a protein stability index of 0.512 ± 0.021. Sequence WAAVGIQLRLLF has a protein stability index of 0.317 ± 0.034. In the case of WALVLLVPVWFD, the protein stability index is reported as 0.383 ± 0.032. With WCAGCLGWWLQS the protein stability index was 0.694 ± 0.015. WCAMITVFCGSG was tested, and the protein stability index was 0.214 ± 0.037. WCAVRVWFGAAL showed a protein stability index of 0.5731 ± 0.0039. Work on WCCVFVARFFWL yielded a protein stability index of 0.348 ± 0.031. With WEISNFFGCFIG the protein stability index was 0.683 ± 0.044. With WFFTDIVMLVRV the protein stability index was 0.192 ± 0.026. With WFSVFTMSILSR the protein stability index was 0.338 ± 0.028. WFWVAVGVVGGG gave a protein stability index of 0.356 ± 0.032. With WGCIFWFFDVRV the protein stability index was 0.229 ± 0.023. WGGEFLSLTLSS was tested, and the protein stability index was 0.664 ± 0.02. WGIPRRPTLFIP was tested, and the protein stability index was 0.658 ± 0.011. WHLLRFETQMFC gave a protein stability index of 0.611 ± 0.037. WHVSLRFAFYVF gave a protein stability index of 0.235 ± 0.019. WIVQCCLYVPVQ showed a protein stability index of 0.25 ± 0.025. Sequence WIYKIVTYEKKS has a protein stability index of 0.648 ± 0.041. Work on WLGLFAFRRCLV yielded a protein stability index of 0.463 ± 0.018. WLVIWPRKLSTV showed a protein stability index of 0.477 ± 0.027. WLVVGGVVLLVV showed a protein stability index of 0.213 ± 0.033. In the case of WRLRIAAVVRSS, the protein stability index is reported as 0.586 ± 0.011. Sequence WRVVVSCALHVC has a protein stability index of 0.169 ± 0.017. For WSCFLLLLSLSL, the protein stability index was 0.417 ± 0.039. Sequence WSFAPRLRCSYL has a protein stability index of 0.784 ± 0.029. In the case of WSMSSPPLLLAS, the protein stability index is reported as 0.272 ± 0.017. WVIWFFVAACLR was tested, and the protein stability index was 0.209 ± 0.024. Work on WVVVGWVGVGFR yielded a protein stability index of 0.383 ± 0.027. With WVVWVLVGGFGG the protein stability index was 0.277 ± 0.036. Work on WVVWWFACVFGV yielded a protein stability index of 0.286 ± 0.033. In the case of WVYVFVSLFFVV, the protein stability index is reported as 0.204 ± 0.029. Sequence WYLLCESCLLCL has a protein stability index of 0.406 ± 0.025. Sequence WYVRVYVLSVES has a protein stability index of 0.186 ± 0.029. YCAAVCFWGLYC was tested, and the protein stability index was 0.541 ± 0.029. With YDVQIEFCVVEV the protein stability index was 0.365 ± 0.03. With YFFFFLHFNFAF the protein stability index was 0.246 ± 0.023. YFFFYFFLLFHL showed a protein stability index of 0.332 ± 0.034. YFWWLWMSFWVG showed a protein stability index of 0.43 ± 0.023. Sequence YGWGFLFILTLM has a protein stability index of 0.262 ± 0.038. YHGVYLARVLQA was tested, and the protein stability index was 0.604 ± 0.011. Work on YIFLLRFFFFFS yielded a protein stability index of 0.333 ± 0.042. YILIKEVLYAVC was tested, and the protein stability index was 0.182 ± 0.028. YIRINNIYWKKS was tested, and the protein stability index was 0.669 ± 0.023. YLFPHVRPKFPG was tested, and the protein stability index was 0.658 ± 0.019. Work on YLVSFVAFLRLF yielded a protein stability index of 0.422 ± 0.025. For YMNLYKNVISVT, the protein stability index was 0.378 ± 0.024. YMVESVWVLLGT gave a protein stability index of 0.431 ± 0.032. YPFIPLIVCGFF showed a protein stability index of 0.344 ± 0.024. With YPVGAAFIRARA the protein stability index was 0.361 ± 0.036. YQHSRSGRNKII was tested, and the protein stability index was 0.652 ± 0.028. Work on YSRFALRPQLLV yielded a protein stability index of 0.512 ± 0.025. YSVNSLFCKVFG gave a protein stability index of 0.348 ± 0.031. In the case of YTCFLFLLRCMT, the protein stability index is reported as 0.261 ± 0.044. In the case of YVDSGLTLIHLA, the protein stability index is reported as 0.662 ± 0.018. YVQTKKTRYVLV showed a protein stability index of 0.383 ± 0.025. YVSIWSPILWLA showed a protein stability index of 0.293 ± 0.028. For YYFCMYFKVTLC, the protein stability index was 0.15 ± 0.028. Work on YYFFLTFLCYVF yielded a protein stability index of 0.154 ± 0.023.

Same assay, conditions: genetic background: das1 deletion; temperature: 37 C
With VVGVVVCWGRGW the protein stability index was 0.653 ± 0.0096. VVISRVLAIRLL showed a protein stability index of 0.6173 ± 0.002. VVIWWFSAVVSV showed a protein stability index of 0.2 ± 0.013. Work on VVPVGLYSVILV yielded a protein stability index of 0.4839 ± 0.0039. VVSGLNYCLVLS showed a protein stability index of 0.523 ± 0.006. VVVCSLVPLFVL showed a protein stability index of 0.41 ± 0.017. With VVVVWVVVEIVR the protein stability index was 0.279 ± 0.033. In the case of VVWVYSMLFSIW, the protein stability index is reported as 0.403 ± 0.015. VWFFLLSFANRL showed a protein stability index of 0.517 ± 0.0083. Sequence VWFGGFVCSVLG has a protein stability index of 0.4478 ± 0.0026. In the case of VWFGGLAVCCGG, the protein stability index is reported as 0.4815 ± 0.0022. Work on VWYSCWSFLVLF yielded a protein stability index of 0.55122 ± 0.00022. VYRRKLDRLLCI showed a protein stability index of 0.652 ± 0.0088. WAAVGIQLRLLF showed a protein stability index of 0.47357 ± 9.6e-05. In the case of WALVLLVPVWFD, the protein stability index is reported as 0.567 ± 0.011. With WCAGCLGWWLQS the protein stability index was 0.791 ± 0.014. In the case of WCAMITVFCGSG, the protein stability index is reported as 0.4101 ± 0.0027. WCAVRVWFGAAL showed a protein stability index of 0.693 ± 0.017. WCCVFVARFFWL was tested, and the protein stability index was 0.499 ± 0.014. WEISNFFGCFIG gave a protein stability index of 0.772 ± 0.017. WFFTDIVMLVRV was tested, and the protein stability index was 0.277 ± 0.0094. For WFSVFTMSILSR, the protein stability index was 0.4963 ± 0.0024. WFWVAVGVVGGG gave a protein stability index of 0.5243 ± 0.0031. WGCIFWFFDVRV gave a protein stability index of 0.416 ± 0.018. WGGEFLSLTLSS was tested, and the protein stability index was 0.7821 ± 0.0073. WGIPRRPTLFIP gave a protein stability index of 0.7417 ± 0.00092. WHLLRFETQMFC was tested, and the protein stability index was 0.712 ± 0.022. With WHVSLRFAFYVF the protein stability index was 0.342 ± 0.011. In the case of WIVQCCLYVPVQ, the protein stability index is reported as 0.3619 ± 0.0011. WIYKIVTYEKKS was tested, and the protein stability index was 0.705 ± 0.029. WLGLFAFRRCLV showed a protein stability index of 0.5898 ± 0.0041. WLVIWPRKLSTV gave a protein stability index of 0.6179 ± 0.0036. Sequence WLVVGGVVLLVV has a protein stability index of 0.395 ± 0.009. WRLRIAAVVRSS showed a protein stability index of 0.6471 ± 0.0012. In the case of WRVVVSCALHVC, the protein stability index is reported as 0.274 ± 0.0034. With WSCFLLLLSLSL the protein stability index was 0.5236 ± 0.0051. WSFAPRLRCSYL was tested, and the protein stability index was 0.883 ± 0.012. WSMSSPPLLLAS was tested, and the protein stability index was 0.377 ± 0.0019. In the case of WVIWFFVAACLR, the protein stability index is reported as 0.347 ± 0.025. WVVVGWVGVGFR gave a protein stability index of 0.5747 ± 0.0021. WVVWVLVGGFGG was tested, and the protein stability index was 0.4813 ± 0.0047. With WVVWWFACVFGV the protein stability index was 0.429 ± 0.019. In the case of WVYVFVSLFFVV, the protein stability index is reported as 0.347 ± 0.013. WYLLCESCLLCL showed a protein stability index of 0.562 ± 0.011. Sequence WYVRVYVLSVES has a protein stability index of 0.3115 ± 0.0015. YCAAVCFWGLYC showed a protein stability index of 0.668 ± 0.012. YDVQIEFCVVEV showed a protein stability index of 0.5694 ± 0.0029. Work on YFFFFLHFNFAF yielded a protein stability index of 0.35 ± 0.0091. Sequence YFFFYFFLLFHL has a protein stability index of 0.45 ± 0.045. In the case of YFWWLWMSFWVG, the protein stability index is reported as 0.59 ± 0.066. In the case of YGWGFLFILTLM, the protein stability index is reported as 0.317 ± 0.0042. YHGVYLARVLQA was tested, and the protein stability index was 0.69 ± 0.015. With YIFLLRFFFFFS the protein stability index was 0.515 ± 0.03. With YILIKEVLYAVC the protein stability index was 0.281 ± 0.0066. Work on YIRINNIYWKKS yielded a protein stability index of 0.722 ± 0.012. Sequence YLFPHVRPKFPG has a protein stability index of 0.7316 ± 0.0071. In the case of YLVSFVAFLRLF, the protein stability index is reported as 0.5418 ± 0.0026. YMNLYKNVISVT gave a protein stability index of 0.522 ± 0.0072. YMVESVWVLLGT showed a protein stability index of 0.582 ± 0.0083. In the case of YPFIPLIVCGFF, the protein stability index is reported as 0.4747 ± 0.00094. YPVGAAFIRARA showed a protein stability index of 0.5378 ± 0.0026. YQHSRSGRNKII was tested, and the protein stability index was 0.716 ± 0.021. Sequence YSRFALRPQLLV has a protein stability index of 0.62 ± 0.029. In the case of YSVNSLFCKVFG, the protein stability index is reported as 0.541 ± 0.0043. YTCFLFLLRCMT showed a protein stability index of 0.415 ± 0.0047. Work on YVDSGLTLIHLA yielded a protein stability index of 0.72 ± 0.013. YVQTKKTRYVLV showed a protein stability index of 0.543 ± 0.011. For YVSIWSPILWLA, the protein stability index was 0.453 ± 0.0083. With YYFCMYFKVTLC the protein stability index was 0.285 ± 0.0044. YYFFLTFLCYVF gave a protein stability index of 0.255 ± 0.01.

Same assay, conditions: genetic background: doa10 deletion; temperature: 30 C
VVGVVVCWGRGW was tested, and the protein stability index was 0.448 ± 0.019. Work on VVISRVLAIRLL yielded a protein stability index of 0.1324 ± 0.0013. VVIWWFSAVVSV was tested, and the protein stability index was 0.0495 ± 0.014. In the case of VVPVGLYSVILV, the protein stability index is reported as 0.289 ± 0.0065. For VVSGLNYCLVLS, the protein stability index was 0.276 ± 0.013.
